From US5156956A, “Transgultaminase” (Ajinomoto Co., Inc., priority 1987, dated 1992)

Legend:
[1] = Measurement of BTGase activity (hydroxamate method); format: biochemical; details: freeze dried product prepared in Example 1
Procedure: Measurement of the activity of BTGase is carried out by performing a reaction using benzyloxycarbonyl-L-glutaminyl glycine and hydroxylamine as substrates in the absence of Ca^2+, forming an iron complex with the resulting hydroxamic acid in the presence of trichloroacetic acid, measuring absorption at 525 nm and determining the amount of hydroxamic acid by a calibration curve to calculate the activity. The BTGase activity is measured by the method described below, unless otherwise indicated.
To 0.05 ml of an enzyme solution is added 0.5 ml of Reagent A and they are mixed with each other. After reacting at 37° C. for 30 minutes, Reagent B is added thereto to discontinue the reaction and form an Fe complex. Thereafter, absorbance is measured at 525 nm. As a control, absorbance is measured after reacting a previously thermally inactivated enzyme solution in a similar manner and a difference in absorbance between the control and the enzyme solution is measured. Separately, a calibration curve is prepared using L-glutamic acid γ-monohydroxamio acid instead of the enzyme solution, and the amount of hydroxamic acid produced is determined by the difference in absorbance described above. An enzyme activity which produces 1 μmol of hydroxamic acid per 1 minute is defined as 1 unit.

[2] = system: Acid-precipitated soybean protein; test: Gelation, test tube inversion method; format: biochemical; design: key: .smallcircle.: gelled; Δ: weakly gelled; x: remained as solution; details: BTGase 0.02 U/mg protein, 55° C., 1 h, MTGase 0.1 U/mg, 37° C.
Procedure: (§1) 1) The BTGase (freeze dried product, specific activity of 2.50 Units/mg protein) prepared in Example 1 was added to 5 ml of each of 5 and 10 wt. % solutions or suspensions of protein foodstuffs prepared by the method described in Example 1 of Published Unexamined Japanese Patent Application No. 149645/83 or purchased, namely, (1) αsi -casein, (2) Na-caseinate, (3) soybean 11S globulin, (4) soybean 7S globulin, (5) soybean protein isolate "Ajipron S-2" (manufactured by Ajinomoto Co., Inc.), (6) water-extracted soybean protein, (7) acid-precipitated soybean protein, (8) soybean protein particles, (9) soybean protein micelles and (10) gelatin in 0.02 U per 1 mg of protein followed by shake incubation at 55° C. for an hour. After allowing to stand at room temperature, test tubes with samples were turned upside down, whereby gelation was determined by noting whether the samples drifted down or not.
(§2) For purposes of comparison, the results of gelation ability test with MTGase are also shown. The amount of MTGase added was 0.1 U per 1 mg of substrate protein.

[3] = system: Ajipron S-2 (soybean protein isolate); test: Gelation, test tube inversion method; format: biochemical; design: key: .smallcircle.: gelled; Δ: weakly gelled; x: remained as solution; details: BTGase 0.02 U/mg protein, 55° C., 1 h, MTGase 0.1 U/mg, 37° C.
Procedure: as §1, §2

Gelatin = test: Gelation, test tube inversion method; format: biochemical; design: key: .smallcircle.: gelled; Δ: weakly gelled; x: remained as solution; details: BTGase 0.02 U/mg protein, 55° C., 1 h, MTGase 0.1 U/mg, 37° C.
Procedure: as §1, §2

Na-Caseinate = test: Gelation, test tube inversion method; format: biochemical; design: key: .smallcircle.: gelled; Δ: weakly gelled; x: remained as solution; details: BTGase 0.02 U/mg protein, 55° C., 1 h, MTGase 0.1 U/mg, 37° C.
Procedure: as §1, §2

Soybean 11S globulin = test: Gelation, test tube inversion method; format: biochemical; design: key: .smallcircle.: gelled; Δ: weakly gelled; x: remained as solution; details: BTGase 0.02 U/mg protein, 55° C., 1 h, MTGase 0.1 U/mg, 37° C.
Procedure: as §1, §2

Soybean 7S globulin = test: Gelation, test tube inversion method; format: biochemical; design: key: .smallcircle.: gelled; Δ: weakly gelled; x: remained as solution; details: BTGase 0.02 U/mg protein, 55° C., 1 h, MTGase 0.1 U/mg, 37° C.
Procedure: as §1, §2

Soybean protein micells = test: Gelation, test tube inversion method; format: biochemical; design: key: .smallcircle.: gelled; Δ: weakly gelled; x: remained as solution; details: BTGase 0.02 U/mg protein, 55° C., 1 h, MTGase 0.1 U/mg, 37° C.
Procedure: as §1, §2

[4] = system: Soybean protein particles; test: Gelation, test tube inversion method; format: biochemical; design: key: .smallcircle.: gelled; Δ: weakly gelled; x: remained as solution; details: BTGase 0.02 U/mg protein, 55° C., 1 h, MTGase 0.1 U/mg, 37° C.
Procedure: as §1, §2

[5] = system: Water-extracted soybean protein; test: Gelation, test tube inversion method; format: biochemical; design: key: .smallcircle.: gelled; Δ: weakly gelled; x: remained as solution; details: BTGase 0.02 U/mg protein, 55° C., 1 h, MTGase 0.1 U/mg, 37° C.
Procedure: as §1, §2

αS1 -Casein = test: Gelation, test tube inversion method; format: biochemical; design: key: .smallcircle.: gelled; Δ: weakly gelled; x: remained as solution; details: BTGase 0.02 U/mg protein, 55° C., 1 h, MTGase 0.1 U/mg, 37° C.
Procedure: as §1, §2

Rabbit myosin = test: Gelation, test tube inversion method; format: biochemical; design: key: .smallcircle.: gelled; Δ: weakly gelled; x: remained as solution; details: BTGase 0.02 U/mg protein, 55° C., 1 h, MTGase 0.1 U/mg, 37° C.
Procedure: 2) Rabbit myosin was prepared as follows for use as a substrate for BTGase.
The concentration of protein was 1.5%. BTGase was added to the myosin under the same conditions as under 1) above to examine gelation ability.
as §2

Prawn myosin = test: Gelation, test tube inversion method; format: biochemical; design: key: .smallcircle.: gelled; Δ: weakly gelled; x: remained as solution; details: 5 ml, 3.6 units of BTGase, 35° C., 35 minutes at maximum, MTGase 0.1 U/mg, 37° C., 1 h
Procedure: 3) Prawn myosin was prepared as follows for use as a substrate for BTGase.
The shell of a fresh (live) prawn (body length of about 5 cm) was peeled off and the prawn flection muscle was taken out. After mincing, the mince was washed with ice water and homogenized under cooling in the presence of 0.1 mM DTT and 0.1 mM PMSF. By centrifugation, actomyosin was extracted and separated therefrom. By further ultracentrifugation at 10^5 ×g for 60 minutes, actin was removed to give a myosin-rich fraction. Further dilution precipitation and ultracentrifugation were repeated to give purified prawn myosin. […] By immersing in a water bath at 35° C., the reaction was initiated and carried out for 35 minutes at maximum.
as §2

[6] = Sausage: rheometer and organoleptic evaluation; details: 1 unit per 1 g of dry pork, 55° C. 2 h, then 80° C. 30 min
Procedure: Physical properties were measured with a rheometer (manufactured by Yamaden Co., Ltd.) and organoleptic evaluation (n=10) was performed. The amount of BTGase added was 1 unit per 1 g of dry pork. The enzyme reaction was carried out at 55° C. for 2 hours. After completion of the reaction, heating was performed at 80° C. for 30 minutes to make a product. As a control, BTGase-free product was used.

B1: BTGase: microorganism-derived transglutaminase; in Examples 4-11 the freeze dried product prepared in Example 1 (S. mobaraense, i.e. BTG-1) (protein, UniProt P81453 77-407, looked up)
Protein-glutamine …: DSDDRVTPPAEPLDRMPDPYRPSYGRAETVVNNYIRKWQQVYSHRDGRKQQMTEEQREWLSYGCVGVTWVNSGQYPTNRLAFASFDEDRFKNELKNGRPRSGETRAEFEGRVAKESFDEEKGFQRAREVASVMNRALENAHDESAYLDNLKKELANGNDALRNEDARSPFYSALRNTPSFKERNGGNHDPSRMKAVIYSKHFWSGQDRSSSADKRKYGDPDAFRPAPGTGLVDMSRDRNIPRSPTSPGEGFVNFDYGWFGAQTEADADKTVWTHGNHYHAPNGSLGAMHVYESKFRNWSEGYSDFDRGAYVITFIPKSWNTAPDKVKQGWP
- specific activity [1]: 2.50 Units/mg protein
- Gelation, Acid-precipitated soybean protein 5% ([2]; 5%): .smallcircle.
- Gelation, Acid-precipitated soybean protein 10% ([2]; 10%): .smallcircle.
- Gelation, Ajipron S-2 5% ([3]; 5%): .smallcircle.
- Gelation, Ajipron S-2 10% ([3]; 10%): .smallcircle.
- Gelation, Gelatin 5% (Gelatin; 5%): .smallcircle.
- Gelation, Gelatin 10% (Gelatin; 10%): .smallcircle.
- Gelation, Na-Caseinate 5% (Na-Caseinate; 5%): .smallcircle.
- Gelation, Na-Caseinate 10% (Na-Caseinate; 10%): .smallcircle.
- Gelation, Soybean 11S globulin 5% (Soybean 11S globulin; 5%): .smallcircle.
- Gelation, Soybean 11S globulin 10% (Soybean 11S globulin; 10%): .smallcircle.
- Gelation, Soybean 7S globulin 5% (Soybean 7S globulin; 5%): .smallcircle.
- Gelation, Soybean 7S globulin 10% (Soybean 7S globulin; 10%): .smallcircle.
- Gelation, Soybean protein micells 5% (Soybean protein micells; 5%): Δ
- Gelation, Soybean protein micells 10% (Soybean protein micells; 10%): .smallcircle.
- Gelation, Soybean protein particles 5% ([4]; 5%): .smallcircle.
- Gelation, Soybean protein particles 10% ([4]; 10%): .smallcircle.
- Gelation, Water-extracted soybean protein 5% ([5]; 5%): .smallcircle.
- Gelation, Water-extracted soybean protein 10% ([5]; 10%): .smallcircle.
- Gelation, αS1 -Casein 5% (αS1 -Casein; 5%): .smallcircle.
- Gelation, αS1 -Casein 10% (αS1 -Casein; 10%): .smallcircle.
- Gelation, Rabbit myosin 1.5% (Rabbit myosin): .smallcircle.
- Gelation, Prawn myosin 3.6% (Prawn myosin): .smallcircle.
- Viscosity Coefficient [6]: 1.92 × 10^9 dyn.sec.cm^-2
